Measured values published in patent US20050064392A1 (TRUSTEES OF THE UNIVERSITY OF PENNYLVANIA, published 2005).

Biological target: T1, CXCR4 (UniProt P61073 1-352)
T1 construct: whole, on cells; also called X4
Assay: western blot binding assay on CXCR4-transfected cells

T1 sequence (P61073 whole entry): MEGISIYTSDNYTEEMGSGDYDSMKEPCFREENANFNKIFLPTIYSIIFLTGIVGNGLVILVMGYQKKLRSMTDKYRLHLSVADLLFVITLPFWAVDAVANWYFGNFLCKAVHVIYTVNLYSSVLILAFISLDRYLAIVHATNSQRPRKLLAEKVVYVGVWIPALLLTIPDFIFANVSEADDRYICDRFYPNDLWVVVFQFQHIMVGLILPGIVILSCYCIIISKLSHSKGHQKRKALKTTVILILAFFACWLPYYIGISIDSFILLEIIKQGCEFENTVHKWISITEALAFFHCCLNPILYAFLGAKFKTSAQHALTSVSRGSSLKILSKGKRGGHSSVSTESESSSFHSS

B1: HIV-2/VCP gp120 (other)
chain: KQFVTVFYGIPAWRNASIPLFCATKNRDTWGTIQCLPDNDDYQEIALNVTEAFDAWNNTVTEQAVEDVWNLFETSIKPCVKLTPLCVAMNCTRNMTTSTGTTDTQNITIINDTSPCVRADNCTGLKEEEMVDCQFNMTGLERDKRKQYTEAWYSKDVICDNNTSSRSKCYMNHCNTSVITESCDKHYWDAMRFRYCAPPGFALLRCNDTNYSGFAPNCSKVVAATCTRMMETQSSTWFGFNGTRAENRTYIYWHGKNNRTIISLNNFYNLTMHCKRPGNKTVLPIMSGFKFHSKPVINKKPRQAWCWFKGEWKEAMQEVKETLAKHPRYKGNRSRTENIKFKAPGRGSDPEAAYMWTNCRGEFLYCNMTWFLNWVDNRTGQKQRNYAPCHIRQIINTWHRVGKNVYLPPREGELTCNSTVTSIIANIDTGDQTDITFSAEVAELYRLELGDYKLVEITPIGFAPTSVKRYSSAHQRHTR
notes: also called gp120 Env of HIV-2/VCP
- binding result: binds
